Here are results for five molecules from PMC12267440, “Human glycogenins maintain glucose homeostasis by regulating glycogen metabolism” (Nature Communications, 2025).

Where a chain is given by its changes, count along the chain named. Numbers in names are those of the source.

First the molecules themselves.
B1: Homo sapiens wild-type GYG1 (glycogenin-1) (enzyme, human, UniProt P46976-2 1-333, looked up)
chain: MTDQAFVTLTTNDAYAKGALVLGSSLKQHRTTRRLVVLATPQVSDSMRKVLETVFDEVIMVDVLDSGDSAHLTLMKRPELGVTLTKLHCWSLTQYSKCVFMDADTLVLANIDDLFDREELSAAPDPGWPDCFNSGVFVYQPSVETYNQLLHLASEQGSFDGGDQGILNTFFSSWATTDIRKHLPFIYNLSSISIYSYLPAFKVFGASAKVVHFLGRVKPWNYTYDPKTKSVKSEAHDPNMTHPEFLILWWNIFTTNVLPLLQQFGLVKDTCSYVNVEDVSGAISHLSLGEIPAMAQPFVSSEERKERWEQGQADYMGADSFDNIKRKLDTYLQ
modifications: autoglycosylated (smear on blots; glucose polymer on Y195)
notes: glycogenin-1 (GYG1), Homo sapiens, UniProt P46976-2; also called GYG1 (WT); source: Sf9, co-infected with GS baculovirus, purified with GS (Ni-NTA, Superose 6)
B2: Homo sapiens GYG1 Y195F mutant (enzyme, human, UniProt P46976-2 1-333, looked up)
chain: B1 chain with Y195F
notes: glycogenin-1 (GYG1), Homo sapiens, UniProt P46976-2, autoglycosylation site mutated; source: Sf9, co-infected with GS baculovirus, purified with GS (Ni-NTA, Superose 6)
B3: Homo sapiens glycogen synthase GS1 (GYS1), amino acids 1-737, N-terminal hexahistidine tag (enzyme, human, UniProt P13807 1-737, looked up)
chain: MPLNRTLSMSSLPGLEDWEDEFDLENAVLFEVAWEVANKVGGIYTVLQTKAKVTGDEWGDNYFLVGPYTEQGVRTQVELLEAPTPALKRTLDSMNSKGCKVYFGRWLIEGGPLVVLLDVGASAWALERWKGELWDTCNIGVPWYDREANDAVLFGFLTTWFLGEFLAQSEEKPHVVAHFHEWLAGVGLCLCRARRLPVATIFTTHATLLGRYLCAGAVDFYNNLENFNVDKEAGERQIYHRYCMERAAAHCAHVFTTVSQITAIEAQHLLKRKPDIVTPNGLNVKKFSAMHEFQNLHAQSKARIQEFVRGHFYGHLDFNLDKTLYFFIAGRYEFSNKGADVFLEALARLNYLLRVNGSEQTVVAFFIMPARTNNFNVETLKGQAVRKQLWDTANTVKEKFGRKLYESLLVGSLPDMNKMLDKEDFTMMKRAIFATQRQSFPPVCTHNMLDDSSDPILTTIRRIGLFNSSADRVKVIFHPEFLSSTSPLLPVDYEEFVRGCHLGVFPSYYEPWGYTPAECTVMGIPSISTNLSGFGCFMEEHIADPSAYGIYILDRRFRSLDDSCSQLTSFLYSFCQQSRRQRIIQRNRTERLSDLLDWKYLGRYYMSARHMALSKAFPEHFTYEPNEADAAQGYRYPRPASVPPSPSLSRHSSPHQSEDEEDPRNGPLEEDGERYDEDEEAAKDRRNIRAPEWPRRASCTSSTSGSKRNSVDTATSSSLSTPSEPLSPTSSLGEERN
notes: glycogen synthase GS1 (GYS1), Homo sapiens, UniProt P13807, amino acids 1-737; No cleavage of the His tag is described; the complexes were captured on Ni-NTA by it; The cryo-EM complex is called heterooctameric (D2 symmetry imposed); source: Sf9, co-infected with a GYG baculovirus, purified (Ni-NTA, Superose 6); not shown: His6 (PreScission protease-cleavable), N-terminal, kept
B4: Homo sapiens wild-type GYG2 (glycogenin-2) (enzyme, human, UniProt O15488-1 1-501, looked up)
chain: MSETEFHHGAQAGLELLRSSNSPTSASQSAGMTVTDQAFVTLATNDIYCQGALVLGQSLRRHRLTRKLVVLITPQVSSLLRVILSKVFDEVIEVNLIDSADYIHLAFLKRPELGLTLTKLHCWTLTHYSKCVFLDADTLVLSNVDELFDRGEFSAAPDPGWPDCFNSGVFVFQPSLHTHKLLLQHAMEHGSFDGADQGLLNSFFRNWSTTDIHKHLPFIYNLSSNTMYTYSPAFKQFGSSAKVVHFLGSMKPWNYKYNPQSGSVLEQGSASSSQHQAAFLHLWWTVYQNNVLPLYKSVQAGEARASPGHTLCHSDVGGPCADSASGVGEPCENSTPSAGVPCANSPLGSNQPAQGLPEPTQIVDETLSLPEGRRSEDMIACPETETPAVITCDPLSQPSPQPADFTETETILQPANKVESVSSEETFEPSQELPAEALRDPSLQDALEVDLAVSVSQISIEEKVKELSPEEERRKWEEGRIDYMGKDAFARIQEKLDRFLQ
notes: glycogenin-2 (GYG2), Homo sapiens, UniProt O15488-1, full-length; Two vectors are named (MultiBac pACEBac1 with full-length GYG2; Bac-to-Bac with wild-type GYG2 O15488-1); source: Sf9, co-infected with GS baculovirus, purified with GS (Ni-NTA, Superose 6); also isolated alone
B5: Homo sapiens GYG2 Y228F mutant (enzyme, human, UniProt O15488-1 1-501, looked up)
chain: B4 chain with Y228F
notes: glycogenin-2 (GYG2), Homo sapiens, UniProt O15488-1, putative autoglycosylation site mutated; also called GYG2 Y229F mutant (methods); source: baculovirus (Bac-to-Bac), purified with GS

In series [1] the target is B3. The series is described as follows: SEC; co-expressed in insect cells, captured on Ni-NTA by the His6 tag of GS, then Superose 6 16/60; SDS-PAGE and Western blot of peak fractions. The note with it: both partners purified. A general note: SEC sorts molecules by how far they enter the pores of the column.
Series [2] deals with the molecule itself. The series is described as follows: cryo-EM structure; purified GS•GYG2 complex from SEC peak fractions at ~2 mg/mL; Titan Krios 300 keV; D2 symmetry imposed.
For series [3], the target named is T1, Homo sapiens glycogen synthase GS2 (GYS2), amino acids 1-703 (human, UniProt P54840 1-703).
T1 construct: glycogen synthase GS2 (GYS2), Homo sapiens, UniProt P54840, amino acids 1-703; The methods say that the His tag was put at the N-terminus of 'GS' without telling GS1 and GS2 apart; source: baculovirus (Bac-to-Bac), purified with GYG2
T1 sequence (looked up): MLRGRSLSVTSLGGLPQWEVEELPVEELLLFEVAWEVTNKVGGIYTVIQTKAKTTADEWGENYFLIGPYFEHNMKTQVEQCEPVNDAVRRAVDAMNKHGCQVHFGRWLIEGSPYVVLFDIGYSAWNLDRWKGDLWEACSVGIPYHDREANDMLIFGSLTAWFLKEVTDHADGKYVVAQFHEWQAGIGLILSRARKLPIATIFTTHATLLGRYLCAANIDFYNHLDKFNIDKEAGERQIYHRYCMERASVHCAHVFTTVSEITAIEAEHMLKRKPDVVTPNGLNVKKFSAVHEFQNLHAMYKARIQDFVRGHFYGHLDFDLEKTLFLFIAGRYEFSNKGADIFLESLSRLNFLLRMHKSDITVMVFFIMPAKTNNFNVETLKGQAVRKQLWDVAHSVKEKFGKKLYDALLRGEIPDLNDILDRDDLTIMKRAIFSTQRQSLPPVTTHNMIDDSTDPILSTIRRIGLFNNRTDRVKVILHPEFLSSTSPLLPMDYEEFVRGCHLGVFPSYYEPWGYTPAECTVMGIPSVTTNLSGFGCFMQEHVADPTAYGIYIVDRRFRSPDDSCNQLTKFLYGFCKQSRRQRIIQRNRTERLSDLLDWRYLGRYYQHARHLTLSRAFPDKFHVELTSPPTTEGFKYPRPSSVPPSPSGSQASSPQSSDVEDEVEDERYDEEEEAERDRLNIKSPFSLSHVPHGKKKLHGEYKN
Description: SEC; co-expressed in insect cells, captured on Ni-NTA by the His6 tag of GS, then Superose 6 16/60; SDS-PAGE and Western blot of peak fractions. The conditions noted are these: both partners purified.

In the case of B1, the binding result in series [1] is given as “binds”. On to B2, for which the binding result in series [1] is listed as “binds”. For B3, the binding result in series [2] is listed as “binds”. In the case of B4, the binding result in series [3] is on record as “binds”.

Take B5: the binding result in series [1] was “binds”.
